How the values were obtained:
[1] = target: HLA-B*2705 (B27) single antigen on Luminex beads (human); assay: Luminex single antigen, iBeads (#6), IVIg 1:8
[2] = target: HLA-B*2708 (B27) single antigen on Luminex beads (human); assay: Luminex single antigen, iBeads (#6), IVIg 1:8
[3] = target: HLA-B*3501 (B35) single antigen on Luminex beads (human); assay: Luminex single antigen, iBeads (#6), IVIg 1:8
[4] = target: HLA-B*3701 (B37) single antigen on Luminex beads (human); assay: Luminex single antigen, iBeads (#6), IVIg 1:8
[5] = target: HLA-B*3801 (B38) single antigen on Luminex beads (human); assay: Luminex single antigen, iBeads (#6), IVIg 1:8
[6] = target: HLA-B*3901 (B39) single antigen on Luminex beads (human); assay: Luminex single antigen, iBeads (#6), IVIg 1:8
[7] = target: HLA-B*4001 (B60) single antigen on Luminex beads (human); assay: Luminex single antigen, iBeads (#6), IVIg 1:8
[8] = target: HLA-B*4002 (B61) single antigen on Luminex beads (human); assay: Luminex single antigen, iBeads (#6), IVIg 1:8
[9] = target: HLA-B*4006 (B61) single antigen on Luminex beads (human); assay: Luminex single antigen, iBeads (#6), IVIg 1:8
[10] = target: HLA-B*4101 (B41) single antigen on Luminex beads (human); assay: Luminex single antigen, iBeads (#6), IVIg 1:8
[11] = target: HLA-B*4201 (B42) single antigen on Luminex beads (human); assay: Luminex single antigen, iBeads (#6), IVIg 1:8
[12] = target: HLA-B*4402 (B44) single antigen on Luminex beads (human); assay: Luminex single antigen, iBeads (#6), IVIg 1:8
[13] = target: HLA-B*4403 (B44) single antigen on Luminex beads (human); assay: Luminex single antigen, iBeads (#6), IVIg 1:8
[14] = target: HLA-B*4501 (B45) single antigen on Luminex beads (human); assay: Luminex single antigen, iBeads (#6), IVIg 1:8
[15] = target: HLA-B*4601 (B46) single antigen on Luminex beads (human); assay: Luminex single antigen, iBeads (#6), IVIg 1:8
[16] = target: Albumin on negative control beads (serum albumin, HSA/BSA) (human or bovine); assay: Luminex single antigen beads, iBeads (#6), 1:8
[17] = target: HLA-A*0301 (A3) on single antigen beads (human) (UniProt P04439); assay: Luminex single antigen beads, iBeads (#6), 1:8
[18] = target: Albumin on negative control beads (serum albumin, HSA/BSA) (human or bovine); assay: Luminex, iBead MFI against regular bead MFI, 1:8
[19] = target: HLA-A*0301 (A3) on single antigen beads (human) (UniProt P04439); assay: Luminex, iBead MFI against regular bead MFI, 1:8
[20] = target: HLA-B*2708 (B27) single antigen on Luminex beads (human); assay: Luminex single antigen, regular beads (#7), IVIg 1:8
[21] = target: HLA-B*3501 (B35) single antigen on Luminex beads (human); assay: as above
[22] = target: HLA-B*3701 (B37) single antigen on Luminex beads (human); assay: as above
[23] = target: HLA-B*3801 (B38) single antigen on Luminex beads (human); assay: as above
[24] = target: HLA-B*3901 (B39) single antigen on Luminex beads (human); assay: as above
[25] = target: HLA-B*4002 (B61) single antigen on Luminex beads (human); assay: as above
[26] = target: HLA-B*4006 (B61) single antigen on Luminex beads (human); assay: as above
[27] = target: HLA-B*4101 (B41) single antigen on Luminex beads (human); assay: as above
[28] = target: HLA-B*4402 (B44) single antigen on Luminex beads (human); assay: as above
[29] = target: HLA-B*4403 (B44) single antigen on Luminex beads (human); assay: as above
[30] = target: HLA-B*4501 (B45) single antigen on Luminex beads (human); assay: as above
[31] = target: HLA-B*4601 (B46) single antigen on Luminex beads (human); assay: as above
[32] = target: HLA-B*4701 (B47) single antigen on Luminex beads (human); assay: as above
[33] = target: Albumin on negative control beads (serum albumin, HSA/BSA) (human or bovine); assay: Luminex single antigen beads, regular beads (#7), 1:8
[34] = target: HLA-A*0301 (A3) on single antigen beads (human) (UniProt P04439); assay: as above
[35] = target: HLA-B*2705 (B27) single antigen on Luminex beads (human); assay: Luminex single antigen, iBead vs regular bead, IVIg 1:8
[36] = target: HLA-B*2708 (B27) single antigen on Luminex beads (human); assay: as above
[37] = target: HLA-B*3501 (B35) single antigen on Luminex beads (human); assay: as above
[38] = target: HLA-B*3701 (B37) single antigen on Luminex beads (human); assay: as above
[39] = target: HLA-B*3801 (B38) single antigen on Luminex beads (human); assay: as above
[40] = target: HLA-B*3901 (B39) single antigen on Luminex beads (human); assay: as above
[41] = target: HLA-B*4001 (B60) single antigen on Luminex beads (human); assay: as above
[42] = target: HLA-B*4002 (B61) single antigen on Luminex beads (human); assay: as above
[43] = target: HLA-B*4006 (B61) single antigen on Luminex beads (human); assay: as above
[44] = target: HLA-B*4101 (B41) single antigen on Luminex beads (human); assay: as above
[45] = target: HLA-B*4201 (B42) single antigen on Luminex beads (human); assay: as above
[46] = target: HLA-B*4402 (B44) single antigen on Luminex beads (human); assay: as above
[47] = target: HLA-B*4403 (B44) single antigen on Luminex beads (human); assay: as above
[48] = target: HLA-B*4501 (B45) single antigen on Luminex beads (human); assay: as above
[49] = target: HLA-B*4601 (B46) single antigen on Luminex beads (human); assay: as above
[50] = target: HLA-B*4701 (B47) single antigen on Luminex beads (human); assay: as above
[51] = target: HLA-B*4701 (B47) single antigen on Luminex beads (human); assay: Luminex single antigen, iBeads (#6), IVIg 1:8
[52] = target: HLA-B*2705 (B27) single antigen on Luminex beads (human); assay: Luminex single antigen, regular beads (#7), IVIg 1:8
[53] = target: HLA-B*4001 (B60) single antigen on Luminex beads (human); assay: as above
[54] = target: HLA-B*4201 (B42) single antigen on Luminex beads (human); assay: as above

Gamunex-C Lot NKLK1 (IVIg) (antibody)
MFI [1]: 0 MFI | MFI [2]: 0 MFI | MFI [3]: 577 MFI | MFI [4]: 612 MFI | MFI [5]: 0 MFI | MFI [6]: 0 MFI | MFI [7]: 93 MFI | MFI [8]: 0 MFI | MFI [9]: 421 MFI | MFI [10]: 0 MFI | MFI [11]: 0 MFI | MFI [12]: 786 MFI | MFI [13]: 836 MFI | MFI [14]: 399 MFI | MFI [15]: 851 MFI | MFI [16]: 7800 MFI | MFI [17]: -211 MFI | Difference % (iBead against regular bead) [18]: -24% | Difference % (iBead against regular bead) [19]: -151% | MFI [20]: 0 MFI | MFI [21]: 1480 MFI | MFI [22]: 4790 MFI | MFI [23]: 1260 MFI | MFI [24]: 0 MFI | MFI [25]: 0 MFI | MFI [26]: 4340 MFI | MFI [27]: 605 MFI | MFI [28]: 5310 MFI | MFI [29]: 1210 MFI | MFI [30]: 562 MFI | MFI [31]: 2450 MFI | MFI [32]: 2030 MFI | MFI [33]: 10300 MFI | MFI [34]: 410 MFI | Difference % (iBead against regular bead MFI) [35]: -100% | Difference % (iBead against regular bead MFI) [36]: 0% | Difference % (iBead against regular bead MFI) [37]: -61% | Difference % (iBead against regular bead MFI) [38]: -87% | Difference % (iBead against regular bead MFI) [39]: -100% | Difference % (iBead against regular bead MFI) [40]: 0% | Difference % (iBead against regular bead MFI) [41]: -93% | Difference % (iBead against regular bead MFI) [42]: 0% | Difference % (iBead against regular bead MFI) [43]: -90% | Difference % (iBead against regular bead MFI) [44]: -100% | Difference % (iBead against regular bead MFI) [45]: -100% | Difference % (iBead against regular bead MFI) [46]: -85% | Difference % (iBead against regular bead MFI) [47]: -31% | Difference % (iBead against regular bead MFI) [48]: -29% | Difference % (iBead against regular bead MFI) [49]: -65% | Difference % (iBead against regular bead MFI) [50]: -39%

Gamunex-C Lot NKLG1 (IVIg) (antibody)
MFI [1]: 1660 MFI | MFI [2]: 1340 MFI | MFI [3]: 1610 MFI | MFI [4]: 3640 MFI | MFI [5]: 1380 MFI | MFI [6]: 242 MFI | MFI [8]: 1680 MFI | MFI [9]: 2140 MFI | MFI [10]: 1490 MFI | MFI [11]: 1090 MFI | MFI [12]: 1870 MFI | MFI [13]: 2400 MFI | MFI [14]: 2110 MFI | MFI [15]: 3540 MFI | MFI [51]: 2800 MFI | MFI [16]: 7150 MFI | Difference % (iBead against regular bead) [18]: -34% | MFI [52]: 388 MFI | MFI [20]: 0 MFI | MFI [21]: 1670 MFI | MFI [22]: 6130 MFI | MFI [23]: 1360 MFI | MFI [24]: 0 MFI | MFI [53]: 1680 MFI | MFI [25]: 569 MFI | MFI [26]: 5390 MFI | MFI [27]: 716 MFI | MFI [54]: 455 MFI | MFI [28]: 6460 MFI | MFI [29]: 1110 MFI | MFI [30]: 1110 MFI | MFI [31]: 3010 MFI | MFI [32]: 2550 MFI | MFI [33]: 10800 MFI | MFI [34]: 0 MFI | Difference % (iBead against regular bead MFI) [35]: 327% | Difference % (iBead against regular bead MFI) [37]: -3% | Difference % (iBead against regular bead MFI) [38]: -41% | Difference % (iBead against regular bead MFI) [39]: 1% | Difference % (iBead against regular bead MFI) [42]: 195% | Difference % (iBead against regular bead MFI) [43]: -60% | Difference % (iBead against regular bead MFI) [45]: 139% | Difference % (iBead against regular bead MFI) [46]: -71% | Difference % (iBead against regular bead MFI) [47]: 116% | Difference % (iBead against regular bead MFI) [48]: 91% | Difference % (iBead against regular bead MFI) [49]: 17% | Difference % (iBead against regular bead MFI) [50]: 10%
